Results taken from paper PMC5678893.

Legend:
[1] = target: His-tagged cytoplasmic fragment (CF) of the E. coli aspartate chemoreceptor, 4Q (E. coli); assay: co-sedimentation
[2] = target: all active complexes of the different constructs assembled with vesicles, PEG, or Ni(II); assay: co-sedimentation

| Binder | percent bound [1] | sedimentation relative to the optimal NiCl2 sample [1] | sedimented (bound) concentration, maximum at 4 h [1] | stoichiometry N (CheW per 6 CF) [2] |
| --- | --- | --- | --- | --- |
| CheW (natural protein) MTGMTNVTKLASEPSGQEFLVFTLGDEEYGIDILKVQEIRGYDQVTRIANTPAFIKGVTNLRGVIVPIVDLRIKFSQVDVDYNDNTVVIVLNLGQRVVGIVVDGVSDVLSLTAEQIRPAPEFAVTLSTEYLTGLGALGDRMLILVNIEKLLNSEEMALLDSAASEVA | < 15% | 50% | 13.6 µM | 2.1 to 3 |
| CheA (enzyme) MSMDISDFYQTFFDEADELLADMEQHLLVLQPEAPDAEQLNAIFRAAHSIKGGAGTFGFSVLQETTHLMENLLDEARRGEMQLNTDIINLFLETKDIMQEQLDAYKQSQEPDAASFDYICQALRQLALEAKGETPSAVTRLSVVAKSEPQDEQSRSQSPRRIILSRLKAGEVDLLEEELGHLTTLTDVVKGADSLSAILPGDIAEDDITAVLCFVIEADQITFETVEVSPKISTPPVLKLAAEQAPTGRVEREKTTRSNESTSIRVAVEKVDQLINLVGELVITQSMLAQRSSELDPVNHGDLITSMGQLQRNARDLQESVMSIRMMPMEYVFSRYPRLVRDLAGKLGKQVELTLVGSSTELDKSLIERIIDPLTHLVRNSLDHGIELPEKRLAAGKNSVGNLILSAEHQGGNICIEVTDDGAGLNRERILAKAASQGLTVSENMSDDEVAMLIFAPGFSTAEQVTDVSGRGVGMDVVKRNIQKMGGHVEIQSKQGTGTTIRILLPLTLAILDGMSVRVADEVFILPLNAVMESLQPREADLHPLAGGERVLEVRGEYLPIVELWKVFNVAGAKTEATQGIVVILQSGGRRYALLVDQLIGQHQVVVKNLESNYRKVPGISAATILGDGSVALIVDVSALQAINREQRMANTAA | < 15% | 50% | 5.8 µM |  |
